Molecular target: OXA-48酶抗原 (recombinant OXA-48 enzyme antigen) (UniProt Q6XEC0)
Assay: indirect ELISA, OXA-48 antigen coated at 100 ng per well, goat anti-rabbit IgG-HRP, OD450

Sequence of UniProt Q6XEC0 (Q6XEC0 23-265 limits assumed): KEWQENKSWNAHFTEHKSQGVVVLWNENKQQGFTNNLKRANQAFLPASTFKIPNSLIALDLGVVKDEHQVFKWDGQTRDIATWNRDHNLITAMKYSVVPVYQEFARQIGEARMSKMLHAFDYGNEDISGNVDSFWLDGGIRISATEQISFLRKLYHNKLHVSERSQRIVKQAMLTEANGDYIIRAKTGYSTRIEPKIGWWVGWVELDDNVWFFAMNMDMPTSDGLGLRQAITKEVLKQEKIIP

B1: 第一单克隆抗体 (first anti-OXA-48 enzyme monoclonal antibody) (antibody, V domains shown)
VH: EVKLVESGGGLVQPGRSLRLSCATSGFTFADYSMTWVRQPPGKGLEWVGLIKRNAYGGTTEYAASVRGRFTISRDNSQSIAYLQMNTLRTEDTPAYYCLRGYSGYDWEGLDAFDVWGQGTMVTVSS
VL: DIVMSQSPSSLAVSLGEKVTINCKSGQSVLFTSNNKNYLAWYQQKPGQPPKLLISWASTRESGVPDRFSGSGSGTDFTLAISSVQAEDVAVYYCQQYYSPGPFTFGQGTKVEIK
  OD值 (OD450 at 1:1280000 dilution): 0.5 OD
  效价 (ELISA titer) (dilution factor (1:x)): 1.28e+06

B2: 第二单克隆抗体 (second anti-OXA-48 enzyme monoclonal antibody) (antibody, V domains shown)
VH: EVQLVESGGGLVKPGGSLRLSCAASGFTFSGYWMHWVRQAPEKGLVWVAYINSDGSSTNYADSVKGRFTISRDNAKNTLFLQMNSLRAEDTAMYYCARGGGYSYGPFDYWGQGTSVTVSS
VL: QSVLTQPSSASTSPGSSVKLSCTGTSSDIGNNDYVSWYQQYMGRPPTNIIYDVSRRPSGVSDRFSGSIDRSSNTAFLTVNNVQADDEADYYCSSYAGSSNLVFGGGTKLTV
  OD值 (OD450 at 1:1280000 dilution): > 0.5 OD
  效价 (ELISA titer) (dilution factor (1:x)): 1.28e+06

Reference: patent CN115960237A
